# In patent publication US20150344570A1 (published 2015):
# Residue numbers refer to the chain shown, from its start. In names and notes the source's numbering stands.
# T1: FcgRIIaH (human, UniProt P12318 34-217)
# T1 construct: extracellular domain; Allotype H131; also called FcγRIIa H; FcgRIIa type H; not shown: His tag attached to the C terminus
# T1 sequence (looked up): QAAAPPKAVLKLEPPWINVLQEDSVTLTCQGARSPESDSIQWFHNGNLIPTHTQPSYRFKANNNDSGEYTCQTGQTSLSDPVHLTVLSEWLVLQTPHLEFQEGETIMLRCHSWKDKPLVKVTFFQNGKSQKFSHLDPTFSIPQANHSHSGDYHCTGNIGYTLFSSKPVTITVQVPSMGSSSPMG
# T2: FcgRIIaR (human, UniProt P12318 34-217)
# T2 construct: extracellular domain; Allotype R131; also called FcγRIIa R; FcgRIIa type R; not shown: His tag attached to the C terminus
# T2 sequence (looked up): T1 sequence (looked up) with H134R
# T3: FcgRIIb (human, UniProt P31994 43-217)
# T3 construct: extracellular domain; also called FcγRIIb; CD32B; not shown: His tag attached to the C terminus
# T3 sequence (looked up): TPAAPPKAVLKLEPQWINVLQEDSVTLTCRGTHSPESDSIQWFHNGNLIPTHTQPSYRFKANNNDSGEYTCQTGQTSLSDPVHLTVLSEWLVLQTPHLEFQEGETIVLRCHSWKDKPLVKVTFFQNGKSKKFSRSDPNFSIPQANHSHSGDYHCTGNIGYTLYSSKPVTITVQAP
# B1: H240-Kn120/H240-Hl174/L73-k0 (antibody, human IgG1, kappa)
# heavy 1: QDQLVQSGAEVKKPGASVKVSCKASGFNIKDTYIQWVRQAPGQGLEWMGRIDPLRKQTKYREKFEGRVTITADTSTNTAYMELSSLRSEDTAVYYCVRSGREFDYWGQGTLVTVSSASTKGPSVFPLAPSSKSTSGGTAALGCLVKDYFPEPVTVSWNSGALTSGVHTFPAVLQSSGLYSLSSVVTVPSSSLGTQTYICNVNHKPSNTKVDKKVEPKSCDKTHTCPPCPAPEYYWGPMVFLFPPKPKDTLMISRTPEVTCVVVDVSDEDPEVKFNWYVDGVEVHNAKTKPREEQYNATYRVVSVLTVLHQDWLNGKEYKCKVSNKDLPAPIEKTISKAKGQPREPQVCTLPPSRDELTKNQVSLWCLVKGFYPSDIAVEWESNGQPENNYKTTPPVLDSDGSFFLYSKLTVDKSRWQQGNVFSCSVMHEALHNHYTQKSLSLSP
# heavy 2: QDQLVQSGAEVKKPGASVKVSCKASGFNIKDTYIQWVRQAPGQGLEWMGRIDPLRKQTKYREKFEGRVTITADTSTNTAYMELSSLRSEDTAVYYCVRSGREFDYWGQGTLVTVSSASTKGPSVFPLAPSSKSTSGGTAALGCLVKDYFPEPVTVSWNSGALTSGVHTFPAVLQSSGLYSLSSVVTVPSSSLGTQTYICNVNHKPSNTKVDKKVEPKSCDKTHTCPPCPAPELLGGPSVFLFPPKPKDTLMISRTPEVTCVVVDVSHEEPEVKFNWYVDGVEVHNAKTKPREEQYNSTYRVVSVLTVLHQDWLNGKEYKCKVSNDALPKPEEETISKAKGQPREPQVYTLPPSRCELTKNQVSLSCAVKGFYPSDIAVEWESNGQPENNYKTTPPVLDSDGSFFLVSKLTVDKSRWQQGNVFSCSVMHEALHNHYTQKSLSLSP
# light: DIQMTQSPSSLSASVGDRVTITCRASQDIHKYIAWYQQKPGQAPRLLIQYTSTLQPGVPSRFSGSGSGTDYTFTISSLQPEDIATYYCLQYEQLRTFGGGTKVEIKRTVAAPSVFIFPPSDEQLKSGTASVVCLLNNFYPREAKVQWKVDNALQSGNSQESVTEQDSKDSTYSLSSTLTLSKADYEKHKVYACEVTHQGLSSPVTKSFNRGEC
# notes: Heterodimerized anti-epiregulin IgG1 antibody; I332E in H240-Hl068
# B2: H240-Kn138/H240-Hl147/L73-k0 (antibody, human IgG1, kappa)
# heavy 1: B1 heavy 1 with L327W
# heavy 2: B1 heavy 2 with L327W, E331I
# light: B1 light
# notes: Heterodimerized anti-epiregulin IgG1 antibody; L328W in both H chains
# B3: H240-Kn120/H240-Hl182/L73-k0 (antibody, human IgG1, kappa)
# heavy 1: B1 heavy 1
# heavy 2: B1 heavy 2 with A230H, E331I
# light: B1 light
# notes: Heterodimerized anti-epiregulin IgG1 antibody; A231H in H240-Hl068
# B4: H240-Kn172/H240-Hl177/L73-k0 (antibody, human IgG1, kappa)
# heavy 1: B1 heavy 1 with I331M
# heavy 2: B1 heavy 2 with E331Q
# light: B1 light
# notes: Heterodimerized anti-epiregulin IgG1 antibody; I332M in H240-Kn120 and I332Q in H240-Hl068
# B5: H240-Kn166/H240-Hl170/L73-k0 (antibody, human IgG1, kappa)
# heavy 1: B1 heavy 1 with L327A
# heavy 2: B1 heavy 2 with L327A, E331I
# light: B1 light
# notes: Heterodimerized anti-epiregulin IgG1 antibody; L328A in both H chains
# B6: H240-Kn173/H240-Hl068/L73-k0 (antibody, human IgG1, kappa)
# heavy 1: B1 heavy 1 with I331Q
# heavy 2: B1 heavy 2 with E331I
# light: B1 light
# notes: Heterodimerized anti-epiregulin IgG1 antibody; I332Q in H240-Kn120
# B7: H240-Kn178/H240-Hl068/L73-k0 (antibody, human IgG1, kappa)
# heavy 1: B1 heavy 1 with K333Y
# heavy 2: B1 heavy 2 with E331I
# light: B1 light
# notes: Heterodimerized anti-epiregulin IgG1 antibody; K334Y in H240-Kn120
# B8: H240-Kn138/H240-Hl068/L73-k0 (antibody, human IgG1, kappa)
# heavy 1: B1 heavy 1 with L327W
# heavy 2: B1 heavy 2 with E331I
# light: B1 light
# notes: Heterodimerized anti-epiregulin IgG1 antibody; L328W in H240-Kn120
# B9: GpH7-A5/GpH7-B3-15-02A/GpL16-k0 (antibody, human IgG1, kappa)
# heavy 1: not shown
# heavy 2: not shown
# light: DIVMTQSPLSLPVTPGEPASISCQASESLVHSNRNTYLHWYLQKPGQSPQLLIYKVSNRFSGVPDRFSGSGSGTDFTLKISRVEAEDVGVYYCSQNTHVPPTFGQGTKVEIERTVAAPSVFIFPPSDEQLKSGTASVVCLLNNFYPREAKVQWKVDNALQSGNSQESVTEQDSKDSTYSLSSTLTLSKADYEKHKVYACEVTHQGLSSPVTKSFNRGEC
# notes: H2 S298A
# B10: GpH7-TA6/GpH7-B3/GpL16-k0 (antibody, human IgG1, kappa)
# heavy 1: QVQLVQSGAEVKKPGASVTVSCKASGYTFTDYEMHWIRQPPGEGLEWIGAIDPKTGDTAYSESFQDRVTLTADKSTSTAYMELSSLTSEDTAVYYCTRFYSYTYWGQGTLVTVSSASTKGPSVFPLAPSSKSTSGGTAALGCLVKDYFPEPVTVSWNSGALTSGVHTFPAVLQSSGLYSLSSVVTVPSSSLGTQTYICNVNHKPSNTKVDKKVEPKSCDKTHTCPPCPAPELLWGPSVFLFPPKPKDTLMISRTPEVTCVVVDVSHEDPEVKFNWYVDGVEVHNAKTKPREEQYNATYRVVSVLTVLHQDWLNGKEYKCKVSNKALPAPIEKTISKAKGQPREPQVYTLPPSRKELTKNQVSLTCLVKGFYPSDIAVEWESNGQPENNYKTTPPVLDSDGSFFLYSKLTVDKSRWQQGNVFSCSVMHEALHNRYTQKSLSLSP
# heavy 2: not shown
# light: B9 light
# notes: H1 G236W and S298A
# B11: GpH7-TA3/GpH7-B3-03-20W/GpL16-k0 (antibody, human IgG1, kappa)
# heavy 1: B10 heavy 1 with W234G
# heavy 2: not shown
# light: B9 light
# notes: H1 S298A; H2 G236W
# B12: GpH7-TA2/GpH7-B3-01-15Y/GpL16-k0 (antibody, human IgG1, kappa)
# heavy 1: B10 heavy 1 with A296S
# heavy 2: not shown
# light: B9 light
# notes: H1 G236W; H2 L234Y
# B13: GpH7-TA1/GpH7-B3-15-02A/GpL16-k0 (antibody, human IgG1, kappa)
# heavy 1: B10 heavy 1 with L232Y, W234G, A296S
# heavy 2: not shown
# light: B9 light
# notes: H1 L234Y; H2 S298A
# B14: GpH7-TA5/GpH7-B3/GpL16-k0 (antibody, human IgG1, kappa)
# heavy 1: B10 heavy 1 with L232Y, W234G
# heavy 2: not shown
# light: B9 light
# notes: H1 L234Y and S298A
# B15: GpH7-TA4/GpH7-B3/GpL16-k0 (antibody, human IgG1, kappa)
# heavy 1: B10 heavy 1 with L232Y, A296S
# heavy 2: not shown
# light: B9 light
# notes: H1 L234Y and G236W
# Biological target: T1, FcgRIIaH
# Experiment: SPR (Biacore); KD of H240-Kn120/H240-Hl068/L73-k0 divided by KD of the sample
# Description: (§1) Analysis of interaction between objective antibody and the FcγR was carried out using Biacore T100 (GE Healthcare), Biacore T200, Biacore A100, and Biacore 4000. HBS-EP+ (GE Healthcare) was used as the running buffer, and the measurement temperature was set to 25° C. Chips produced by immobilizing the antigen peptide by the amine coupling method to a Series S sensor Chip CM5 (GE Healthcare), chips produced by allowing preliminarily biotinylated antigen peptides to interact with and immobilize onto a Series S Sensor Chip SA (certified) (GE Healthcare), chips produced by immobilizing Protein L (ACTIGEN, BioVision) to Series S Sencor Chip CM5 (GE Healthcare), or chips produced by immobilizing Protein A/G (Thermo Scientific) to Series S Sencor Chip CM5 (GE Healthcare) were used. Antibodies of interest were captured onto these chips, and allowed to interact to each FcγR diluted with running buffer. To regenerate and repeatedly use the chip, the antibodies captured onto the chip were washed off by reacting 10 mM glycine-HCl, pH 1.5.
row,relative KD,Binder
1,0.7,B1
2,0.3,B2
3,0.5,B3
4,0.7,B4
5,1.9,B5
6,0.7,B6
7,0.6,B7
8,1.6,B8

# Biological target: T2, FcgRIIaR
# Experiment: as above
# Description: as §1
row,relative KD,Binder
1,0.7,B1
2,1.8,B2
3,0.5,B3
4,0.7,B4
5,0.6,B5
6,0.5,B6
7,0.8,B7
8,1.1,B8

# Biological target: T4, FcgRIIIaF (human, UniProt P08637 17-208)
# T4 construct: extracellular domain; Allotype F158; also called FcγRIIIa F; not shown: His tag attached to the C terminus
# T4 sequence (P08637 17-208): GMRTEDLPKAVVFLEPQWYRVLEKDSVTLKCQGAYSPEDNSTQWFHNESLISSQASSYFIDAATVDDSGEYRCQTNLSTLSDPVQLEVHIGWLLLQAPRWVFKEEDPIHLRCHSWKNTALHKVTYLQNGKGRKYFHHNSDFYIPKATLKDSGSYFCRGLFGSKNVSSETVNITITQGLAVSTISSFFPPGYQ
# Experiment: as above
# Description: as §1
row,relative KD,Binder
1,4.3,B1
2,0.1,B2
3,0.7,B3
4,1.1,B4
5,0.5,B5
6,1.2,B6
7,1.6,B7
8,0.6,B8

# Biological target: T5, FcgRIIIaV (human, UniProt P08637 17-208)
# T5 construct: extracellular domain; Allotype V158; also called FcγRIIIa V; not shown: His tag attached to the C terminus
# T5 sequence (P08637 17-208 F176V limits assumed): as the sequence (P08637 17-208) above, with F160V counted along it
# Experiment: as above
# Description: as §1
row,relative KD,Binder
1,10,B1
2,0,B2
3,1.2,B3
4,1.6,B4
5,0.4,B5
6,0.9,B6
7,1.9,B7
8,0.8,B8

# Biological target: T6, FcgRIa (human, UniProt P12314 16-292)
# T6 construct: extracellular domain; Soluble extracellular domain expressed in FreeStyle293 cells; also called FcγRIa; FcγRI; not shown: His tag attached to the C terminus
# T6 sequence (P12314 16-292): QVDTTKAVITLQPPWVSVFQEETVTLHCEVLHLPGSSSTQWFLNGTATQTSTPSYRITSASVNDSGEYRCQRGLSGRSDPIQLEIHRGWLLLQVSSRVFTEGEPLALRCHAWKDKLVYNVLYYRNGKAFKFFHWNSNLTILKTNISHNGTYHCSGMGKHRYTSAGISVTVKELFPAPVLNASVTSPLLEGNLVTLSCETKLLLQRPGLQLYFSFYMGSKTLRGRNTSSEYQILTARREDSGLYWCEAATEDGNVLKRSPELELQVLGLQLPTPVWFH
# Experiment: as above
# Description: as §1
row,relative KD,Binder
1,1.1,B1
2,0.5,B2
3,0.9,B3
4,0.6,B4
5,2.4,B5
6,1.3,B6
7,0.7,B7
8,1,B8

# Biological target: T3, FcgRIIb
# Experiment: as above
# Description: as §1
row,relative KD,Binder
1,1.2,B1
2,1.4,B2
3,0.6,B3
4,0.9,B4
5,0.8,B5
6,0.5,B6
7,1.4,B7
8,1.2,B8

# Biological target: FcγRIIIa extracellular domain with C-terminal His tag (human, UniProt P08637 17-208)
# Sequence (P08637 17-208): as the sequence (P08637 17-208) above
# Experiment: SPR (Biacore), relative binding activity; GpH7-A5/GpH7-B3/GpL16-k0 = 100
row,FcγRIIIa BINDING ACTIVITY [%],Binder
1,163,B9
2,228,B10
3,70,B11
4,130,B12
5,142,B13
6,208,B14
7,168,B15
